From US20200299389A1 (AP BIOSCIENCES, published 2020) come the findings set out here.

Usually EC50 stands for the midpoint of the concentration-response curve.

Test [1] has as its target recombinant PD-L1 protein (UniProt Q9NZQ7 19-238, limits assumed). Put plainly: direct ELISA on coated recombinant PD-L1, anti-human F(ab')2-HRP detection. In general terms: ELISA stands for enzyme-linked immunosorbent assay.
The next test has as its target T1, murine PD-L1 (murine, UniProt Q9EP73 19-238, limits assumed).
T1 construct: also called rodent PD-L1
Put plainly: not described.

Chain of recombinant PD-L1 protein (Q9NZQ7 19-238 limits assumed): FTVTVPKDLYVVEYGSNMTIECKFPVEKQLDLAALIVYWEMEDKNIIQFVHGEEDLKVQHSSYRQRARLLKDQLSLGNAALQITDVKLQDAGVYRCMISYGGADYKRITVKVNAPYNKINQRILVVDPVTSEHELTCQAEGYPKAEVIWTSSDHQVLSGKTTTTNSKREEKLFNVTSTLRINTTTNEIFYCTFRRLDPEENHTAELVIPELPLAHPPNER
T1 sequence (Q9EP73 19-238 limits assumed): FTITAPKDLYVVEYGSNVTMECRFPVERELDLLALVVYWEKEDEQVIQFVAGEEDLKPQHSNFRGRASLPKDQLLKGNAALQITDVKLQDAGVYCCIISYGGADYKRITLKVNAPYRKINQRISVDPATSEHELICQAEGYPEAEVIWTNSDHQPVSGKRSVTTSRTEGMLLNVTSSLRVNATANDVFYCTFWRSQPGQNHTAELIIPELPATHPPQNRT

B1: anti-PD-L1 antibody clone 6 (antibody, V domains shown)
VH: QVQLVQSGAEVKKPGSSVKVSCKASGGTFRRYSISWVRQAPGQGLEWMGGIIPVFGAAKYAQKFQGRVTITADEFTSTAYMELSSLTSEDTAVYYCALSGDSDAFDIWGQGTMVTVSS
VL: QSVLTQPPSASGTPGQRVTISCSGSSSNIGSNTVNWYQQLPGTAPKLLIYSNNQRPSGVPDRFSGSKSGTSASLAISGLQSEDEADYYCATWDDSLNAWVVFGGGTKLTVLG
notes: also called PD-L1-Clone 6; anti-PD-L1 clone 6 antibody
Take B1: the EC50 in test [1] was 100 pM. Also, in the test with murine PD-L1, the binding result is “no binding”.
